Experiment [1] concerns the target KLHL22^1–178 (human) (UniProt Q53GT1). Put plainly: SEC-MALS; WTC-015S5 column, low salt buffer; complexes at 2 mg/ml, KLHL22^1–178 and KLHL12^1–161 alone at 3 mg/ml. Background: Size exclusion chromatography separates by hydrodynamic size, large species first.
In experiment [2] the target is KLHL12^1–161 (human) (UniProt Q53G59). Described as above.
KLHL12^1–161 (human), sequence (Q53G59 1-161): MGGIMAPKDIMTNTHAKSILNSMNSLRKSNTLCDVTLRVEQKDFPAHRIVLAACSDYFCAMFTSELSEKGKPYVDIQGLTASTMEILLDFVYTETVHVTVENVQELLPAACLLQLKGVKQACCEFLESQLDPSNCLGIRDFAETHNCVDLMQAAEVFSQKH

KLHL22^1–178 (human), sequence (Q53GT1 1-178): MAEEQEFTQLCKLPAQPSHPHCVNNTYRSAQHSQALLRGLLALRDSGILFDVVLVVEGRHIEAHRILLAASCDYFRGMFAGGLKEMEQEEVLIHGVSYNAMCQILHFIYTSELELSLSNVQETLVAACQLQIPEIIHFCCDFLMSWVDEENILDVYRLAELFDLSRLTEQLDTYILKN
CUL3^Δ1–24-RBX1, sequence (Q13618 25-768, stated change not applied): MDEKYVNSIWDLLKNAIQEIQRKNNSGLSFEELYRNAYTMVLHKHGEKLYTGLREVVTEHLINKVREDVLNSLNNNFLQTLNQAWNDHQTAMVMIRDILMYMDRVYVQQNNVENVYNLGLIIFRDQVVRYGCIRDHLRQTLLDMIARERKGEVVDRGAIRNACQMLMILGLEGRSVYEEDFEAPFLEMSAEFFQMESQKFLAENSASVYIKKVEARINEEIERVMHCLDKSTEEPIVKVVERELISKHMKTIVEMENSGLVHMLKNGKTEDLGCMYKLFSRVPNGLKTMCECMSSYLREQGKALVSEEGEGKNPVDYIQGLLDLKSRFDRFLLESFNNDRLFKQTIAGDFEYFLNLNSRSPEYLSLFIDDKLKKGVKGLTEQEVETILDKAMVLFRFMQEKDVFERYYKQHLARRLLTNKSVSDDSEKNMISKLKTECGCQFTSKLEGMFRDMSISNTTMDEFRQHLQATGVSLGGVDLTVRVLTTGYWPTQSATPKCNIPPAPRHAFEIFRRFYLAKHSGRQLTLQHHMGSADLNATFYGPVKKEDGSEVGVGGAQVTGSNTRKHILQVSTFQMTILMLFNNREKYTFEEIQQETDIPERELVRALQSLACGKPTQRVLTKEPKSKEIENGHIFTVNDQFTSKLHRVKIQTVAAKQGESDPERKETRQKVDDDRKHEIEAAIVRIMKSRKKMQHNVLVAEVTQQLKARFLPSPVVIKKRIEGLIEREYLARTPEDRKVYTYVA
CUL3^Δ1–24-RBX1, sequence (P62877 whole entry, stated change not applied): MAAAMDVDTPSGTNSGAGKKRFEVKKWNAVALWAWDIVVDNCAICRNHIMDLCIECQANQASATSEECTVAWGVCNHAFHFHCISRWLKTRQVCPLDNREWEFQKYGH
CUL3^WT-RBX1, sequence (Q13618 whole entry): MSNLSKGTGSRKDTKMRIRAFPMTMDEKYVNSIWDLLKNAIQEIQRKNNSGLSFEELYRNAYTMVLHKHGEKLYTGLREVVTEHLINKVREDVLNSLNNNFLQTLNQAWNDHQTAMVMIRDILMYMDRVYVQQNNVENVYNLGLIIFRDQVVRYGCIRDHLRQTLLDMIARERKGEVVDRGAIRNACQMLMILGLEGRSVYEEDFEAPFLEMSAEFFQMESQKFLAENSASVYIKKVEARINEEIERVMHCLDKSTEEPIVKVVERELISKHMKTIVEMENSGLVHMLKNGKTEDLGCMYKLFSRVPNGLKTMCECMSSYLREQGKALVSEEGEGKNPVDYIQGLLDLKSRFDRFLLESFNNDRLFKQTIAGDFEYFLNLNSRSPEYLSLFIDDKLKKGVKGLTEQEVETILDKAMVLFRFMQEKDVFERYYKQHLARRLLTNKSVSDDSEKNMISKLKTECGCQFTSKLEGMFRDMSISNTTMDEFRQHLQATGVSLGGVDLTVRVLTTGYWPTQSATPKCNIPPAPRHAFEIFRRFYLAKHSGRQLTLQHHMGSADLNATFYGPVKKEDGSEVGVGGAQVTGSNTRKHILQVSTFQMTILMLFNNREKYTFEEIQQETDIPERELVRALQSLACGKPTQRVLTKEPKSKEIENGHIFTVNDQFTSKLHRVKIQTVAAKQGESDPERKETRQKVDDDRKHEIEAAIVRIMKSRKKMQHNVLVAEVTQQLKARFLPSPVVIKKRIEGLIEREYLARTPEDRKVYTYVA
CUL3^WT-RBX1, sequence (P62877 whole entry): as the sequence (P62877 whole entry, stated change not applied) above

Turning to “CUL3^WT-RBX1 (from UniProt Q13618 1-768; P62877 1-108) (complex)”, in experiment [1], the stoichiometry N (CUL3-RBX1 per KLHL22^1–178 dimer) worked out at 2.

“CUL3^Δ1–24-RBX1 (from UniProt Q13618 25-768; P62877 1-108) (complex)”: the stoichiometry N (CUL3-RBX1 per KLHL12^1–161 dimer) in experiment [2] was 1. In experiment [1], the stoichiometry N (CUL3-RBX1 per KLHL22^1–178 dimer) came to 1.

The values are drawn from paper PMC11074293.
